Results published in article PMC2836971.

Biological target: Myc-tagged Emi2-C RL^+ mutant (only the RL motif intact; D-box and ZBR mutated) (Xenopus) (UniProt Q8AXF4)
Experiment: co-IP

Substance: Cdc27 (APC/C core subunit), endogenous in Xenopus CSF extracts (natural protein)
- percent less strongly associated with Cdc27 than the WT: 50%
